Data published in patent US20250161220A1, “LYMPHATIC DELIVERY OF NANOPARTICLES TO TREAT NEURODEGENERATIVE, NEUROLOGICAL, AND EYE CONDITIONS” (The Cleveland Clinic Foundation, priority 2022, published 2025).

Test: Catalytic activity of recombinant human CAT versus bovine CAT
Format: biochemical
Details: data normalized to per mg
Source text: In certain embodiments, the nanoparticles are formulated with antioxidant enzymes. For example, the following may be employed for generating SOD and catalase nanoparticles. […] In certain embodiments, SOD is an enzyme that catalyzes the conversion of superoxide to H2O2 and catalase is an enzyme that further degrades H2O2 to molecular oxygen and water. The SOD and catalase for use in the methods and compositions of the invention can be obtained from a variety of sources. In a particular embodiment, the SOD and/or catalase are mammalian SOD and/or mammalian catalase, and/or recombinant catalase. As used herein “mammal” and/or “mammalian” refer to a primate, canine, feline, rodent, and the like. Specific examples of mammalian SOD and/or catalase include human, pig, dog, cat, horse, cow, sheep, goat, rabbit, guinea pig, rats and mice SOD and/or catalase.

B1: Human CAT: Recombinant human catalase obtained from BioVision or Creative BioMart (protein, UniProt P04040 2-527, looked up)
Catalase: ADSRDPASDQMQHWKEQRAAQKADVLTTGAGNPVGDKLNVITVGPRGPLLVQDVVFTDEMAHFDRERIPERVVHAKGAGAFGYFEVTHDITKYSKAKVFEHIGKKTPIAVRFSTVAGESGSADTVRDPRGFAVKFYTEDGNWDLVGNNTPIFFIRDPILFPSFIHSQKRNPQTHLKDPDMVWDFWSLRPESLHQVSFLFSDRGIPDGHRHMNGYGSHTFKLVNANGEAVYCKFHYKTDQGIKNLSVEDAARLSQEDPDYGIRDLFNAIATGKYPSWTFYIQVMTFNQAETFPFNPFDLTKVWPHKDYPLIPVGKLVLNRNPVNYFAEVEQIAFDPSNMPPGIEASPDKMLQGRLFAYPDTHRHRLGPNYLHIPVNCPYRARVANYQRDGPMCMQDNQGGAPNYYPNSFGAPEQQPSALEHSIQYSGEVRRFNTANDDNVTQVRAFYVNVLNEEQRKRLCENIAGHLKDAQIFIQKKAVKNFTEVHPDYGSHIQALLDKYNAEKPKNAIHTFVQSGSHLAAREKANL
- catalytic potency relative to bovine CAT: 5.7 fold
